Read-outs that look alike come from different tables or passages of the source.
Assays:
mouse P2X7 [1] = molecular target: T1, mouse P2X7 (mouse, UniProt Q9Z1M0 1-595); assay: cell-based or functional assay
T1 sequence: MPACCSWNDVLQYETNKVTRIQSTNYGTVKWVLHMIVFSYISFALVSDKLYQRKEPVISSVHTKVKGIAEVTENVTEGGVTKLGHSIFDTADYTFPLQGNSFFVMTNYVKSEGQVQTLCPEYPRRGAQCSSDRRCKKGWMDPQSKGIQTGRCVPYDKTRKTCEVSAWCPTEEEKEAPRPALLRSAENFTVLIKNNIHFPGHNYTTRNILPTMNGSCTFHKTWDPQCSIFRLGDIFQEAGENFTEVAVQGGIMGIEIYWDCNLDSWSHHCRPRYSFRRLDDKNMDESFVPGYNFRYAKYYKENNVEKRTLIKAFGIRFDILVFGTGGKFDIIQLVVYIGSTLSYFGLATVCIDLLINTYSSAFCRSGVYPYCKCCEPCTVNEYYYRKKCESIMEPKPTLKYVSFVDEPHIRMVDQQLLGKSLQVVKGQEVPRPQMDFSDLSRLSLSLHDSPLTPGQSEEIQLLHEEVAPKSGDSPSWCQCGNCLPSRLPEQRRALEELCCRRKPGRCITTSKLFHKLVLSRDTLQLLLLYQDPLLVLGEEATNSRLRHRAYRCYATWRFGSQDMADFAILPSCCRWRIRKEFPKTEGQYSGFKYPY

mouse P2X7 [2] = molecular target: T1, mouse P2X7; assay: phage ELISA on fixed mP2X7-CHO vs untransfected CHO cells;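 note: phage culture supernatant diluted 10-fold, applied for 1 h to paraformaldehyde-fixed, BSA-blocked cells in 96-well plates, with bound phage read via HRP-linked anti-M13 antibody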
Method: (§1) Sub-confluent cells were rinsed with PBS and fixed using 4% paraformaldehyde in PBS for 10 minutes at RT. Fixed cells were washed three times with PBS, and blocked with 2% BSA in PBS for 2 hours. Following blocking, 10-fold diluted culture supernatant containing phage was added and incubated for 1 hour. Cell-bound phage was detected via mouse anti-M13-HRP-conjugate (GE Healthcare, Cat nr. E2886). Rat mAb Hano43 was used as positive control.

mouse P2X7 [3] = molecular target: T1, mouse P2X7; assay: cell-based or functional assay; remark: listed apart in the source
human P2X4 = molecular target: T2, human P2X4 (human, UniProt Q99571 1-388); assay: flow cytometry, Nanobody pre-incubated with anti-Myc-FITC
T2 construct: whole, on cells; also called hP2X4
T2 sequence (looked up): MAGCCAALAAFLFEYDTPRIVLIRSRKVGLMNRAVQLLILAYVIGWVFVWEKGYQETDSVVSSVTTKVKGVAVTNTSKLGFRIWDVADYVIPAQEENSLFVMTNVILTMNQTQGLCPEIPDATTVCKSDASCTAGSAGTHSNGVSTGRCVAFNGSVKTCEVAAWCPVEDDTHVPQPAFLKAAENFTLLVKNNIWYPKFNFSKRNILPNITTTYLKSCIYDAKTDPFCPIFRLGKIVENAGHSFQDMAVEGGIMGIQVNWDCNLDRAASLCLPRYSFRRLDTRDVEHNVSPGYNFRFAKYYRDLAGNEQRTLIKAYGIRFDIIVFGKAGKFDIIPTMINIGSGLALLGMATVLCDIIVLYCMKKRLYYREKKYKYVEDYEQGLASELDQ

mouse P2X7 [4] = molecular target: T1, mouse P2X7; assay: cell-based or functional assay; remark: listed apart in the source
mouse P2X7 [5] = molecular target: T1, mouse P2X7; assay: flow cytometry, purified Nanobody titrated on mP2X7-CHO cells
mouse P2X7 [6] = molecular target: T1, mouse P2X7; assay: cell-based or functional assay; remark: listed apart in the source
human P2X7 = molecular target: T3, human P2X7 (human, UniProt Q99572 1-595); assay: flow cytometry, Nanobody pre-incubated with anti-Myc-FITC
T3 construct: on transfected Hek293 cells; also called hP2X7
T3 sequence: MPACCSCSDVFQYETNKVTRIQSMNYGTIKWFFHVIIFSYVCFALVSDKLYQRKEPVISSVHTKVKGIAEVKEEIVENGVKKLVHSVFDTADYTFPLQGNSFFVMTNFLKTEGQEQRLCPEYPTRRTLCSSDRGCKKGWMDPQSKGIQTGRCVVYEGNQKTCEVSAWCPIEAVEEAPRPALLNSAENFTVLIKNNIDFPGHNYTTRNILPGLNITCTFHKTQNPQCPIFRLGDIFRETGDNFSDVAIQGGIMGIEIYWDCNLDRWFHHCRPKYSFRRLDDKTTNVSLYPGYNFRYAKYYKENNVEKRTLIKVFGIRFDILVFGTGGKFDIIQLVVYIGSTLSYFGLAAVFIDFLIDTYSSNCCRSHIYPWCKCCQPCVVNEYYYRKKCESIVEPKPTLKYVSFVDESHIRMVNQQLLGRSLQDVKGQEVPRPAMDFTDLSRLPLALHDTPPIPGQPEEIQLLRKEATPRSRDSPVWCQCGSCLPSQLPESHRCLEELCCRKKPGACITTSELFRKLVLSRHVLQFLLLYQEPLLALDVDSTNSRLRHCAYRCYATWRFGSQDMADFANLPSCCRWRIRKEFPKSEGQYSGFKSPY

mouse P2X7 [7] = molecular target: T1, mouse P2X7; assay: phage ELISA, mP2X7-CHO vs control CHO cells
Method: as §1

mouse P2X7 [8] = molecular target: T1, mouse P2X7; assay: flow cytometry, periplasmic extract pre-incubated with anti-myc-FITC, on mP2X7-Hek293 cells;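 note: periplasmic extract diluted 10-fold and premixed 45 min at 4 °C with FITC anti-myc antibody, giving pseudo-bivalent Nanobodies, before binding to the cells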
Method: Ten-fold diluted PE were pre-incubation with 0.5 μg anti-myc FITC-conjugated antibodies (AbD Serotec, cat no. MCA2200F) (creating pseudo-bivalent Nanobodies in order to increase binding strength) in 0.1 ml PBS/10% FCS for 45 minutes at 4° C. […] Alternatively, sequential staining of 10-fold diluted PE with anti-myc FITC-conjugated antibodies was done after incubation with the cells.

mouse P2X7 mutant R151A = molecular target: T4, mouse P2X7 mutant R151A (mouse, UniProt Q9Z1M0 1-595); assay: flow cytometry, 1 µM Nanobody on transiently transfected Hek293 cells, normalised to Hano43 staining
T4 construct: transiently transfected Hek293 cells
T4 sequence: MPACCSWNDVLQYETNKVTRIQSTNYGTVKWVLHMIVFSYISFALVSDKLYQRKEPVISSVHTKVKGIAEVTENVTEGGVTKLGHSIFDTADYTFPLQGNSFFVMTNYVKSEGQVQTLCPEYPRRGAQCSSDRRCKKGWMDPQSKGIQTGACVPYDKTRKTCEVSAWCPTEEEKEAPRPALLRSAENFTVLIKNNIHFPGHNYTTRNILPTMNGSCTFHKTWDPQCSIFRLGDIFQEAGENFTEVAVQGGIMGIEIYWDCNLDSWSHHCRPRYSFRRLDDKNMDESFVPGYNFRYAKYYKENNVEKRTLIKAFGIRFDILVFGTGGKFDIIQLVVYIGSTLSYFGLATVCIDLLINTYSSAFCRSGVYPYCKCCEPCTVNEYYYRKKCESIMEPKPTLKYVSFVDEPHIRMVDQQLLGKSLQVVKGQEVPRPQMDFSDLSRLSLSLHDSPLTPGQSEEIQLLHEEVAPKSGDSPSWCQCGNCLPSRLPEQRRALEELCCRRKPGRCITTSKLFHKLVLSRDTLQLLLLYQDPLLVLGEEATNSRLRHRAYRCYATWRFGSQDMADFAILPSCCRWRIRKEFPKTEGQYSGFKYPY
Method: For flow cytometric assays, detection of Nanobodies was performed via anti-Myc and subsequent goat anti-mouse-PE conjugate, while an estimation of P2X7 expression densities was obtained via staining with rat monoclonal Hano43 followed by secondary anti-rat-PE conjugate.

mouse P2X7 [9] = molecular target: T1, mouse P2X7; assay: phage ELISA on fixed mP2X7-CHO vs untransfected CHO cells; phage ELISA, phage-displayed Nanobody, Cho P2X7 vs wt signal ratio
Method: as §1

Binder | ATP IC50 by 2 uM NB (head prints 'mM'; ligand titration at fixed Nanobody, CD62L shedding, Yac-1 cells) (mouse P2X7 [1]) | Fold Cho P2X7/wt (phage ELISA) (mouse P2X7 [2]) | EC50, enhancement of CD62L-ectodomain shedding at 1.5 µM NAD (mouse P2X7 [3]) | EC50, enhancement of CD62L-ectodomain shedding at 33 µM ATP (mouse P2X7 [3]) | binding result (human P2X4) | IC50 (read off the curve) (mouse P2X7 [4]) | IC50 (nM) against 20 uM NAD (CD62L shedding, Yac-1 cells) (mouse P2X7 [1]) | IC50 (nM) against 100 uM ATP (CD62L shedding, Yac-1 cells) (mouse P2X7 [1]) | EC50 (mouse P2X7 [5]) | IC50 (read off the curve) (mouse P2X7 [6]) | binding result (human P2X7) | absorption ratio (ELISA) (mouse P2X7 [7]) | MFI FACS (pre-Myc incubation) (mouse P2X7 [8]) | reduction of binding against WT mP2X7 (mouse P2X7 mutant R151A) | Fold Cho P2X7/wt (phage ELISA) (mouse P2X7 [9])
P2X7PMP14D5 (VHH, family 17; on phage or c-myc/His6-tagged in assays) VHH: KVQLVESGGGLVQAGGSLRLSCAASGSPISSYAMGWYRQAPGKPRELVARIYTGGTAWYEDSVKGRFTISRDNAQNTVYLQMNSLKSEDTAVYYCHGRVRYDYWGQGTQVTVSS | 0.016 mM | 8 fold | 4.1 nM | 22.6 nM | no binding (tested: 147 nM) |  |  |  |  |  |  |  |  |  | 
P2X7PMP13A7 (VHH, family 22; on phage or c-myc/His6-tagged in assays) VHH: EVQLVESGGGLVQPGESLRLSCTASRFMLDYYDIGWFRQAPGKEREGVSCRFTNDGSTAYADSVKGRFTISRDIVKHTVYLQMNSLQPEDTAVYYCAAGPLTKRRQCVPGDFSMDFWGEGTLVTVSS | 0.565 mM | 25 fold |  |  | no binding (tested: 147 nM) | ~4 nM | 11 nM | 6 nM | 3.4 nM | ~1 nM | no binding (tested: 147 nM) |  |  |  | 
P2X7PMP8G12 (VHH, family 5, 3; on phage or c-myc/His6-tagged in assays; also called 8012) VHH: KVQLVESGGGLVQAGGSLRLSCAASGSFFRVNNMAWYRQGPGKQRELVADITRGDRTNYADSVNGRFTISRDNVRNTVYLQMNGLKPEDTAVYYCYATIELGVLEPRDYWGQGTQVTVSS | 0.29 mM | 36 fold |  |  | no binding (tested: 147 nM) |  | 82 nM | 55 nM |  |  | no binding (tested: 147 nM) | 36 ratio | 166 MFI | > 90% | 
P2X7PMP8G11 (VHH, family 5, 1; on phage or c-myc/His6-tagged in assays; also called 8011) VHH: AVQLVESGGGLVQAGGSLRLSCAASGNFFRVNTMAWYRQAPGKQRELVADITRGDRTNYADTVNGRFTISRDNVRNTVYLQMNGLRPEDTAAYYCYAVIELGVLEPRDYWGQGTQVTVSS | 0.389 mM | 26 fold |  |  | no binding (tested: 147 nM) | ~60 nM | 68 nM | 37 nM |  | ~20 nM |  | 26 ratio | 166 MFI | > 90% | 
P2X7PMP7D5 (VHH, family 14; on phage or c-myc/His6-tagged in assays) VHH: EVQLVESGGGLVQAGDSLRLSCAASGRTFSSVAVGWFRQAPGKERDFVAWISWSGDSTYYADSVKGRFTASRDNVNNTVYLQMNSLKPEDTADYYCAAAWKYDRASYDFPEAYDYWGQGTQVTVSS |  | 14 fold |  |  | no binding (tested: 147 nM) |  |  |  | 3 nM |  | no binding (tested: 147 nM) |  |  | > 90% | 
P2X7PMP13F6 (VHH, family 20; on phage or c-myc/His6-tagged in assays) VHH: EVQLVESGGGLVQPGGSLRLSCAASGFTFSTNIMTWVRQAPGKGLEWISTINSGGGTTTYADSVRGRFTISRDNAKNMLYLQMSSLKPEDTALYYCITPRGVKGRGTQVTVSS |  |  |  |  | no binding (tested: 147 nM) |  |  |  |  |  | no binding (tested: 147 nM) |  |  |  | 20 fold
P2X7PMP7E2 (VHH, family 3; on phage or c-myc/His6-tagged in assays) VHH: EVQLVESGGGLVQAGGSLRLSCAAPERTYSMGWFRQAPGKEREFVAGSGWDGIPTRYADSVKGRFTISRDNAKNTVSLQMSGLKPEDTAIYYCATGTSVYHYQYWGQGTQVTVSS |  | 25 fold |  |  | no binding (tested: 147 nM) |  |  |  | 4.3 nM |  | no binding (tested: 147 nM) |  |  | > 90% | 
P2X7PMP20A11 (VHH, family 24; on phage or c-myc/His6-tagged in assays) VHH: EVQLVESGGRVMQTGGSLRLSCAASGHTFNDYNMGWFRQAPGKELEFLAGINWSGMSTWYADSVKDRFTISRDNNKNTVFLQMNSLEPGDTAVYYCAARQWISTIILTAPSQYDYWGQGTQVTVSS |  |  |  |  | no binding (tested: 147 nM) |  |  |  |  |  | no binding (tested: 147 nM) |  |  |  | 11 fold
P2X7PMP2C4 (VHH, family 1; on phage or c-myc/His6-tagged in assays) VHH: EVQLVESGGDVVQAGGSLRLSCLASGFTFDDYAIGWFRQAPGKEREGISCISSTGNVFYADSVKGRFTISSDKEKNTLYLQMNSLKPEDTAVYHCAAGHFTVDSGKVLLRTDISSWGQGTQVTVSS |  |  |  |  | no binding (tested: 147 nM) |  |  |  |  |  | no binding (tested: 147 nM) |  |  |  | 4 fold

From patent publication US20160264664A1 (Ablynx, published 2016)
